Results taken from patent publication US20170107294A1, “ANTI-CD14 ANTIBODIES AND USES THEREOF” (Nordlandssykehuset HF, priority 2014, published 2017).

Legend:
[1] = molecular target: T1, human CD14 (Homo sapiens, UniProt P08571); assay: CD14 binding in flow cytometry, human whole blood (displacement of 18D11 from monocytes)
T1 construct: endogenous in cells; host or cells: monocytes in fresh human whole blood (lepirudin)
T1 sequence (P08571 20-345): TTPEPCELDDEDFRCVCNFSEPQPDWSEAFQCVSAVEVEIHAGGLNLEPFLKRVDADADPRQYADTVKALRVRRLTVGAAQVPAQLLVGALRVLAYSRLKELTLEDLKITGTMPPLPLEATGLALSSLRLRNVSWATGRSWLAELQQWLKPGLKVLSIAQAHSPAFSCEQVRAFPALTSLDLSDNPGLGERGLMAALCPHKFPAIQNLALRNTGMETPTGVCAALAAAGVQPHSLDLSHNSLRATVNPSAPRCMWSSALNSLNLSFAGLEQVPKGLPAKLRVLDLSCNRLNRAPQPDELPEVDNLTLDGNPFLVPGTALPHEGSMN
Description: Fresh human or porcine whole blood was drawn into tubes containing the anticoagulants lepirudin (Refludan; Pharmion, Copenhagen, Denmark) or EDTA, respectively. Blood samples were preincubated for 10 min with Ab, #20 mg/ml anti-human CD14 Abs r18D11, 18D11 F(ab)92 (batch 2068, lot 1383), or isotype controls raNIP and mIgG1 F(ab)92 (lot 1501), or […] anti-porcine CD14 Abs rMil2, Mil2 (lot 1106), or the isotype controls 4770 RECOMBINANT ANTI-CD14 Abs Downloaded from University of Oslo, Library of Medicine and Health Science on Jan. 24, 2014 for IgG2/4 and mIgG2b, eculizumab (Soliris) and mIgG2b (lot 1631), respectively. […] Their binding was detected either by using a secondary PEconjugated anti-mouse IgG or through direct FITC fluorescence. […] In subsequent flow cytometry analyses, human monocyte and porcine granulocyte populations were selected based on the forward scatter-side scatter dot plot, and CD14 binding was recorded as mean or median fluorescence intensity, respectively. […] Fluorescence intensities in the presence of the fluorescently labeled Abs only were set to 100%. Flow cytometry analyses on human samples were performed using an LSRII and FACSDiva software version 5.0.3; porcine samples were analyzed on a FACSCalibur using Cell Quest Pro version 5.2.1 for data acquisition (all from BD Biosciences).

[2] = test system: human whole blood; assay: Whole blood ex vivo model of inflammation, LPS-induced cytokine release in human blood; assay type: cell-based; design: Ab concentration at which maximum inhibitory effects were reached: unit not given here
Description: (§1) The whole blood model has been described in detail previously (36). Fresh human venous or porcine arterial blood was drawn directly into tubes containing the anticoagulant lepirudin (Pharmion) at a final concentration of 50 mg/ml. In 1.8-ml Cryo Tube vials (Nunc, Roskilde, Denmark), the blood was preincubated with up to 20 mg/ml anti-human CD14 (r18D11 or 18D11), or 50 mg/ml anti-porcine CD14 (rMil2 or Mil2) at 37° C. for 10 min prior to an additional 2-h incubation in the presence of 100 ng/ml ultrapure LPS from Escherichia coli 0111:B4 (InvivoGen, San Diego, Calif.) for human blood or 1 3 105/ml heat-inactivated E. coli (strain LE392, ATCC33572) for porcine blood. As negative controls, PBS with MgCl2 and CaCl2 (Sigma-Aldrich) and isotype controls were used. Adverse effects were tested using nonactivated whole blood samples. After the addition of 10 mM (human) or 20 mM (porcine) EDTA, plasma was gained by 15 min centrifugation at 3220 3 g and 4° C. Levels of TNF, IL-6, and IL-1b in human plasma were determined using Bioplex technology (Bio-Rad Laboratories AB). Levels of TNF, IL-1b, and IL-8 in porcine plasma were determined using ELISA (Quantikine, R&D Systems, Minneapolis, Minn.). Platelet count was quantified by impedance using a CELL-DYN Sapphire hematology analyzer (Abbott Laboratories, Abbott Park, Ill.).

[3] = test system: human whole blood; assay: Unwanted effects (complement activation, oxidative burst) in nonstimulated human whole blood; assay type: cell-based; conditions: 10 mg/ml Ab
Description: as §1

[4] = test system: porcine whole blood; assay: rMil2 combined with C5 inhibitor OmCI: cytokine production in porcine whole blood ex vivo; assay type: cell-based; conditions: E. coli-incubated porcine whole blood
Description: as §1
Whole blood was incubated with 1 3 106 E. coli per milliliter for 2 h at 37° C. in the absence or presence of inhibitors and controls. TNF, IL-1b, and IL-8 blood was analyzed as described above.

[5] = test system: complement activation; conditions: pigs; cited from earlier work
[6] = test system: porcine whole blood; assay: Whole blood ex vivo model of inflammation, E. coli-induced cytokine release in porcine blood; assay type: cell-based; conditions: heat-inactivated E. coli
Description: as §1

[7] = test system: porcine whole blood; assay: Adverse (IgG-Fc mediated) effects in nonactivated porcine whole blood; assay type: cell-based; conditions: absence of inflammatory stimuli
Description: as §1

[8] = design: species or system Norwegian domestic piglets (Sus scrofa domesticus); conditions: in vivo, iv, 0.32 mg/kg
Description: (§2) In vivo application of anti-porcine CD14 Abs Norwegian domestic piglets (Sus scrofa domesticus, outbred stock) with a weight of 2.2 kg were isolated at the day of intervention. Anesthesia was induced with 5% sevoflurane in a mixture of air and oxygen until sleep. After establishment of an i.v. line, the piglets received fentanyl (15-20 mg/kg) were tracheotomized in the supine position, and a microcuffed endotracheal tube from Kimberly-Clark (Roswell, GA) with inner diameter of 4 mm was inserted. Maintenance anesthesia was provided with an infusion of fentanyl (50 mg/kg/h, and isoflurane 1-2% in oxygen-enriched air administered from a Leon plus ventilator from Heinen and Loevenstein (Bad Ems, Germany). An artery line was inserted in the right or left carotid artery for blood sampling during the experiments and for continuous measurement of mean artery pressure. The piglets were monitored with electrocardiography and pulse oximetry. Ventilator settings were adjusted to maintain 7.40 pH and oxygen saturation above 96%. Hemodynamic parameters were collected using ICUpilot software, CMA Microdialysis (Stockholm, Sweden) every 30 s. To compensate for hydration needs, the animals received a background infusion of isotonic sodium glucose solution, Salidex (Braun Medical A/S, Vestskogen, Norway) at 10 ml/kg/h. To compare the effect of the Mil2 and the rMil2 on healthy piglets, increasing amounts of a stock solution of 1 mg/ml rMil2 or Mil2 (batch 1106) were injected i.v. into two piglets at indicated times to a maximum dose of 5.36 mg/kg, and arterial blood samples were collected, in tubes containing the anticoagulants EDTA or citrate. To investigate the biological effect of rMIL2 on the inflammatory response, two piglets underwent the E. coli sepsis regimen as described previously (17). One control piglet was gives saline, and one piglet was given a bolus dose of 5 mg/kg rMil2 before infusion of the bacteria.

[9] = test system: E. coli-induced cytokine response; assay: In vivo E. coli sepsis regimen in piglets, cytokine response; design: species or system Norwegian domestic piglets (Sus scrofa domesticus); conditions: bolus 5 mg/kg before i.v. E. coli; vs saline control piglet
Description: as §2

[10] = molecular target: T2, porcine CD14 (Sus scrofa, UniProt F6PST4); assay: Leukocyte CD14 expression before and after rMil2 bolus in a piglet, flow cytometry; assay type: in vivo, Norwegian domestic piglets (Sus scrofa domesticus); design: endogenous in cells; conditions: after bolus dose of 5 mg/kg
T2 sequence (F6PST4 21-373): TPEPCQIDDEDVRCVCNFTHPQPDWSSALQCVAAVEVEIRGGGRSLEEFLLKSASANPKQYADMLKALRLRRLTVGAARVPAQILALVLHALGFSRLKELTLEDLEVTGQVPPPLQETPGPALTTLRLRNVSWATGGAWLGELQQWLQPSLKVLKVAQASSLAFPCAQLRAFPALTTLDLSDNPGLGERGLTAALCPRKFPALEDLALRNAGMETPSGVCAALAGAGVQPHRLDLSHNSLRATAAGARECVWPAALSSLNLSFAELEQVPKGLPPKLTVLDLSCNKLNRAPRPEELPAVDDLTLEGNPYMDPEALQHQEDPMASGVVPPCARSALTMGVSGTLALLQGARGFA
Description: as §2, with “To compare the effect of the Mil2 and the rMil2 on healthy piglets, increasing amounts of a stock solution of 1 mg/ml rMil2 or Mil2 (batch 1106) were injected i.v. into two piglets at indicated times to a maximum dose of 5.36 mg/kg, and arterial blood samples were collected, in tubes containing the anticoagulants EDTA or citrate. To investigate the biological effect of rMIL2 on the inflammatory response, two piglets underwent the E. coli sepsis regimen as described previously (17). One control piglet was gives saline, and one piglet was given a bolus dose of 5 mg/kg rMil2 before infusion of the bacteria.” left out

[11] = molecular target: T2, porcine CD14; assay: CD14 binding in flow cytometry, porcine whole blood (competition with FITC-conjugated Mil2); design: human monocyte and porcine granulocyte populations were selected based on the forward scatter-side scatter dot plot; endogenous in cells; host or cells: granulocytes in fresh porcine whole blood (EDTA); binding sites blocked (competition with FITC-conjugated Mil2 in binding to CD14) / direct binding to porcine granulocytes: dose or concentration left out as unconfirmed
Description: Fresh human or porcine whole blood was drawn into tubes containing the anticoagulants lepirudin (Refludan; Pharmion, Copenhagen, Denmark) or EDTA, respectively. Blood samples were preincubated for 10 min with Ab, #20 mg/ml anti-human CD14 Abs r18D11, 18D11 F(ab)92 (batch 2068, lot 1383), or isotype controls raNIP and mIgG1 F(ab)92 (lot 1501), or […] anti-porcine CD14 Abs rMil2, Mil2 (lot 1106), or the isotype controls 4770 RECOMBINANT ANTI-CD14 Abs Downloaded from University of Oslo, Library of Medicine and Health Science on Jan. 24, 2014 for IgG2/4 and mIgG2b, eculizumab (Soliris) and mIgG2b (lot 1631), respectively. Endotoxin-free Dulbecco phosphate buffered saline, PBS (Sigma-Aldrich), was used for diluting the Abs. Subsequently, blood samples were incubated for another 15 min in the presence of detection Ab, 10 mg/ml 18D11 (batch 719, lot 3110) or 150 mg/ml FITC-conjugated Mil2 (batch 1107). Their binding was detected either by using a secondary PEconjugated anti-mouse IgG or through direct FITC fluorescence. Erythrocytes were lysed using FACS Lysing solution (BD Biosciences, Franklin Lakes, N.J.; human blood) or a solution of 0.16 M ammonium chloride, 10 mM sodium bicarbonate, 0.12 mM EDTA (Tritiplex III) and 0.04% (v/v) paraformaldehyde (porcine blood). In subsequent flow cytometry analyses, human monocyte and porcine granulocyte populations were selected based on the forward scatter-side scatter dot plot, and CD14 binding was recorded as mean or median fluorescence intensity, respectively. In contrast to humans, porcine CD14 is constitutively expressed on mature granulocytes (32, 33). Fluorescence intensities in the presence of the fluorescently labeled Abs only were set to 100%. Flow cytometry analyses on human samples were performed using an LSRII and FACSDiva software version 5.0.3; porcine samples were analyzed on a FACSCalibur using Cell Quest Pro version 5.2.1 for data acquisition (all from BD Biosciences).

B1: r18D11: recombinant anti-human CD14 mouse/human chimeric IgG2/4 Ab; VL SEQ ID NO:1, VH SEQ ID NO:2 (antibody, V domains shown)
VH: MGWSCIILFLVATATGVHSEVQLVESGGGLMQPKGSLKLSCAASGFTFKTYALNWVRQAPGTGLEWVARIRSKSNNYTTYYADSVKDRFTISRDDSQNMLYLQMNNLKTEDTAMYYCVRPQSGTSFAYWGQGTLVTVSAA
VL: MGWSCIILFLVATATGVHSNIVLTQSPASLAVSLGQRATISCRASESVDSYGNSFMHWYQQKPGQPPKLLIYLASNLESGVPARFSGSGSRTDFTLTIDPVEADDVATYYCQQNNGDPYTFGGGTKLEIIR
modifications: human IgG2/4 constant regions
[1]; 10 mg/ml r18D11 vs 10 mg/ml 18D11 (equimolar)
  18D11 displaced from its binding sites on human monocytes: 50%
[1]; human whole blood
  binding to CD14 on human monocytes (competition with 18D11): dose-dependently outcompeted
[2]; 100 ng/ml LPS, dose-dependent
  E. coli ultrapure LPS-induced release of IL-1b, TNF and IL-6: inhibited
[2]; LPS-induced IL-1b, TNF, IL-6 release
  Ab concentration at which maximum inhibitory effects were reached: 10
[3]; flow cytometry
  monocyte oxidative burst: did not induce significant oxidative burst
[3]; not shown
  complement activation: same low level of complement activation

B2: OmCI: endotoxin-free recombinant bacterial OmCI (coversin), a 16.8-kDa protein, complement C5 inhibitor (protein, UniProt Q5YD59 19-168, looked up)
Complement inhibitor: DSESDCTGSEPVDAFQAFSEGKEAYVLVRSTDPKARDCLKGEPAGEKQDNTLPVMMTFKNGTDWASTDWTFTLDGAKVTATLGNLTQNREVVYDSQSHHCHVDKVEKEVPDYEMWMLDAGGLEVEVECCRQKLEELASGRNQMYPHLKDC
[4]
  IL-1b release (effect in words): not significantly reduced
  IL-8 release (effect in words): significantly reduced to almost baseline
  TNF release (effect in words): significantly reduced
[5]
  inhibition of complement activation: inhibit complement activation effectively

B3: rMil2: recombinant anti-porcine CD14 mouse/human chimeric IgG2/4 Ab; VL SEQ ID NO:3, VH SEQ ID NO:4 (antibody, V domains shown)
VH: MGWSCIILFLVATATGVHSQVRLQQPGAELVRPGASVKLSCKASGYTFTTYWMNWVKQRPEDGLEWIGRIDPYDSETHYNQNFKDKAILTVDKSSSTAYMQLSSLTYEDSAVYYCTRKEGRQWGAYFDYWGQGTTLTVSSA
VL: MGWSCIILFLVATATGVHSDIVMTQSQKFMSTSVGDRVSVTCKASQYVGTNVAWYQQKPGQSPKALIQSASYRCSGVPDRFTGSGSGTDFTLTISNVQSEDLADYFCQQYNTYVTFGGGTKLELKR
modifications: human IgG2/4 constant regions
[6]
  block of IL-1b release compared with Mil2: as effective as Mil2
  inhibition of TNF release compared with Mil2: slightly less inhibitory
[7]; 50 mg/ml
  spontaneous IL-8 release: Neither IL-8 secretion nor platelet drop nor aggregation was observed
[7]; up to 71.4 mg/ml
  platelet counts / platelet aggregation: Neither IL-8 secretion nor platelet drop nor aggregation was observed
[4]
  IL-1b release (effect in words): significantly reduced the production
  IL-8 release (effect in words): seemed to be substantial, but did not reach statistical significance
  TNF release (effect in words): significantly reduced
[8]
  heart rate (effect in words): but not rMil2, caused an increase in heart rate
[9]
  IL-1b reduction (area under the curve): 89%
  IL-6 reduction (area under the curve): 88%
  IL-8 reduction (area under the curve): 100%
  TNF reduction (area under the curve): 71%
[10]
  reduction in leukocyte CD14 expression (saturation of CD14): 94%
[11]; Ab, granulocytes in porcine whole blood
  binding sites blocked (competition with FITC-conjugated Mil2 in binding to CD14): ~50%
[11]; not shown
  direct binding to porcine granulocytes: saturated
[11]; porcine whole blood
  displacement of original clone Mil2 from CD14+ granulocytes: effectively bound to and displaced the original clone
